Data taken from publication PMC10397247.
Read-outs that look alike come from different tables or passages of the source. Blank lines part the entries; values can stand above or below the binder they belong to.

What was measured:
4H40-bA = biological target: T1, 4H40-bA; assay: two-hybrid library CCNG1;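 note: natural log of median RNA to DNA barcode read ratio; higher means stronger binding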
T1 chain: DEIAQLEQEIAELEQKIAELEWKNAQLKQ

4H477-bA = biological target: T2, 4H477-bA; assay: two-hybrid library CCNG1;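 note: natural log of median RNA to DNA barcode read ratio; higher means stronger binding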
T2 chain: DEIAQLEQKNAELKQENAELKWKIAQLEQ

4H492-bA = biological target: T3, 4H492-bA; assay: two-hybrid library CCNG1;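 note: natural log of median RNA to DNA barcode read ratio; higher means stronger binding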
T3 chain: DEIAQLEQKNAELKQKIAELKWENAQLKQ

4H741-bA = biological target: T4, 4H741-bA; assay: two-hybrid library CCNG1;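 note: natural log of median RNA to DNA barcode read ratio; higher means stronger binding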
T4 chain: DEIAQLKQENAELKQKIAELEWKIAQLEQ

4H949-bA = biological target: T5, 4H949-bA; assay: two-hybrid library CCNG1;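 note: natural log of median RNA to DNA barcode read ratio; higher means stronger binding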
T5 chain: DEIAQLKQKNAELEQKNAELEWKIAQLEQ

4H348-bA = biological target: T6, 4H348-bA; assay: two-hybrid library CCNG1;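 note: natural log of median RNA to DNA barcode read ratio; higher means stronger binding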
T6 chain: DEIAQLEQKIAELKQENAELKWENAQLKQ

4H4038-AA = biological target: T7, 4H4038-AA; assay: two-hybrid library CCmax
T7 chain: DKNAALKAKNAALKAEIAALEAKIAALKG

4H43-AA = biological target: T8, 4H43-AA; assay: two-hybrid library CCmax; conditions: mean of both orientations
T8 chain: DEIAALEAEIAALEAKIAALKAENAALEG

4H451-AA = biological target: T9, 4H451-AA; assay: two-hybrid library CCmax; conditions: mean of both orientations
T9 chain: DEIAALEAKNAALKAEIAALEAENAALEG

4H510-AA = biological target: T10, 4H510-AA; assay: two-hybrid library CCmax; conditions: mean of both orientations
T10 chain: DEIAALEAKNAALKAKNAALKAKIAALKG

4H_APH = biological target: T11, 4H_APH; assay: two-hybrid library CCmax; conditions: mean of both orientations
T11 chain: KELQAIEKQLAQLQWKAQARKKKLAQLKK

4H_BCR = biological target: T12, 4H_BCR; assay: two-hybrid library CCmax; conditions: mean of both orientations
T12 chain: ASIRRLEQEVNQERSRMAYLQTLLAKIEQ

4H_GCN4 = assay: two-hybrid library CCmax
4H_GCN4, sequence (chain, as listed by the source): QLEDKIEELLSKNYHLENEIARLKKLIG

GCN2_T = assay: two-hybrid library CCmax
O11-AA = biological target: T13, O11-AA; assay: two-hybrid library CCmax; conditions: mean of both orientations
T13 chain: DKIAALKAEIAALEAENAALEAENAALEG

O13-AA = biological target: T14, O13-AA; assay: two-hybrid library CCmax; conditions: mean of both orientations
T14 chain: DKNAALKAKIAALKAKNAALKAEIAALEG

O14-AA = biological target: T15, O14-AA; assay: two-hybrid library CCmax; conditions: mean of both orientations
T15 chain: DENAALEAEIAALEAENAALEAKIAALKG

4H3855-bH = biological target: T16, 4H3855-bH; assay: two-hybrid library CCNG1
T16 chain: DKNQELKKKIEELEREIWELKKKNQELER

4H4001-bH = biological target: T17, 4H4001-bH; assay: two-hybrid library CCNG1
T17 chain: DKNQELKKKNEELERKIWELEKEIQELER

4H454-bH = biological target: T18, 4H454-bH; assay: two-hybrid library CCNG1
T18 chain: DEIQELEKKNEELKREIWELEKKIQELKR

4H568-bH = biological target: T19, 4H568-bH; assay: two-hybrid library CCNG1
T19 chain: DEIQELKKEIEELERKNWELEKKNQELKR

4H607-bH = biological target: T20, 4H607-bH; assay: two-hybrid library CCNG1
T20 chain: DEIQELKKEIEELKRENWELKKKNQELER

4H687-bH = biological target: T21, 4H687-bH; assay: two-hybrid library CCNG1
T21 chain: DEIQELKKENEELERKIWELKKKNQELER

4H717-bH = biological target: T22, 4H717-bH; assay: two-hybrid library CCNG1
T22 chain: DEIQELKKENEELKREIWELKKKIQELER

4H72-bH = biological target: T23, 4H72-bH; assay: two-hybrid library CCNG1
T23 chain: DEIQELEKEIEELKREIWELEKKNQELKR

4H797-bH = biological target: T24, 4H797-bH; assay: two-hybrid library CCNG1
T24 chain: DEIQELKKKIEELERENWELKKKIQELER

4H883-bH = biological target: T25, 4H883-bH; assay: two-hybrid library CCNG1
T25 chain: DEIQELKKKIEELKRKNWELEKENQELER

4H908-bH = biological target: T26, 4H908-bH; assay: two-hybrid library CCNG1
T26 chain: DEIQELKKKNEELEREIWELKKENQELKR

4H918-bH = biological target: T27, 4H918-bH; assay: two-hybrid library CCNG1
T27 chain: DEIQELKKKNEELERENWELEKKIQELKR

4H953-bH = biological target: T28, 4H953-bH; assay: two-hybrid library CCNG1
T28 chain: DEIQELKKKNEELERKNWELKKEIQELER

4H967-bH = biological target: T29, 4H967-bH; assay: two-hybrid library CCNG1
T29 chain: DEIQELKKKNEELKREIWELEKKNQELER

O8-bA = biological target: T30, O8-bA; assay: two-hybrid library CCNG1
T30 chain: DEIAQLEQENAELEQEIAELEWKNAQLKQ

4H3664-AA = biological target: T31, 4H3664-AA; assay: two-hybrid library CCmax
T31 chain: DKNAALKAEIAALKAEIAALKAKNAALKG

4H369-AA = biological target: T32, 4H369-AA; assay: two-hybrid library CCmax; conditions: mean of both orientations
T32 chain: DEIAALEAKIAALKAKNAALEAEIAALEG

4H3922-AA = biological target: T33, 4H3922-AA; assay: two-hybrid library CCmax; conditions: mean of both orientations
T33 chain: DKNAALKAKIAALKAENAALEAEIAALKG

4H4033-AA = biological target: T34, 4H4033-AA; assay: two-hybrid library CCmax; conditions: mean of both orientations
T34 chain: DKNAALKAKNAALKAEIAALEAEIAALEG

4H481-AA = biological target: T35, 4H481-AA; assay: two-hybrid library CCmax; conditions: mean of both orientations
T35 chain: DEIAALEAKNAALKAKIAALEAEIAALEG

4H55-AA = biological target: T36, 4H55-AA; assay: two-hybrid library CCmax; conditions: mean of both orientations
T36 chain: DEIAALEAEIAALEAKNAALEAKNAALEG

4H662-AA = biological target: T37, 4H662-AA; assay: two-hybrid library CCmax; conditions: mean of both orientations
T37 chain: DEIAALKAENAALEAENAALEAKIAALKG

4H2931-AA = biological target: T38, 4H2931-AA; assay: two-hybrid library CCmax
T38 chain: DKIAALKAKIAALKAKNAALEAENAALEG

4H3001-AA = biological target: T39, 4H3001-AA; assay: two-hybrid library CCmax; conditions: mean of both orientations
T39 chain: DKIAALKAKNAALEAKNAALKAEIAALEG

4H3015-AA = biological target: T40, 4H3015-AA; assay: two-hybrid library CCmax; conditions: mean of both orientations
T40 chain: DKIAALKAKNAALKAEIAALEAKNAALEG

4H3073-AA = biological target: T41, 4H3073-AA; assay: two-hybrid library CCmax
T41 chain: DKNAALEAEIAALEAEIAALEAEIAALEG

4H3438-AA = biological target: T42, 4H3438-AA; assay: two-hybrid library CCmax; conditions: mean of both orientations
T42 chain: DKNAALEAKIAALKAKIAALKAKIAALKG

4H347-AA = biological target: T43, 4H347-AA; assay: two-hybrid library CCmax; conditions: mean of both orientations
T43 chain: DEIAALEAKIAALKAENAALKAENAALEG

4H406-AA = biological target: T44, 4H406-AA; assay: two-hybrid library CCmax; conditions: mean of both orientations
T44 chain: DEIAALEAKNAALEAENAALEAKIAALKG

4H452-AA = biological target: T45, 4H452-AA; assay: two-hybrid library CCmax; conditions: mean of both orientations
T45 chain: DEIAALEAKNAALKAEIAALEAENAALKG

4H56-AA = biological target: T46, 4H56-AA; assay: two-hybrid library CCmax; conditions: mean of both orientations
T46 chain: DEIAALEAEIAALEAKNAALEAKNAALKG

4H3381-bN = biological target: T47, 4H3381-bN; assay: two-hybrid library CCNG1
T47 chain: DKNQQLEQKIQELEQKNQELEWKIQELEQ

4H349-bN = biological target: T48, 4H349-bN; assay: two-hybrid library CCNG1
T48 chain: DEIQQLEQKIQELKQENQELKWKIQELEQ

4H56-bN = biological target: T49, 4H56-bN; assay: two-hybrid library CCNG1
T49 chain: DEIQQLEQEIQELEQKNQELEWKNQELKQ

4H730-bN = biological target: T50, 4H730-bN; assay: two-hybrid library CCNG1
T50 chain: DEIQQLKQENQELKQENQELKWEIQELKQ

4H796-bN = biological target: T51, 4H796-bN; assay: two-hybrid library CCNG1
T51 chain: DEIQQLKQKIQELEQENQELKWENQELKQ

4H932-bN = biological target: T52, 4H932-bN; assay: two-hybrid library CCNG1
T52 chain: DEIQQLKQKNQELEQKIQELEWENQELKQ

4H949-bN = biological target: T53, 4H949-bN; assay: two-hybrid library CCNG1
T53 chain: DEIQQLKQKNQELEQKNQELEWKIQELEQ

4H40-bN = biological target: T54, 4H40-bN; assay: two-hybrid library CCNG1
T54 chain: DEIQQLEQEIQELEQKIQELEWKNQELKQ

4H477-bN = biological target: T55, 4H477-bN; assay: two-hybrid library CCNG1
T55 chain: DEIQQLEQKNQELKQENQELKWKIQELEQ

4H492-bN = biological target: T56, 4H492-bN; assay: two-hybrid library CCNG1
T56 chain: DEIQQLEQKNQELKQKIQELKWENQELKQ

4H741-bN = biological target: T57, 4H741-bN; assay: two-hybrid library CCNG1
T57 chain: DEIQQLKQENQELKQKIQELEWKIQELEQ

interaction score (4H40-bA): 1.76 | interaction score (4H477-bA): -1.02 | interaction score (4H492-bA): 1.72 | interaction score (4H741-bA): -0.423 | interaction score (4H949-bA): -1.8
Binder: DEIAQLEQEIAELEQKIAELEWKNAQLKQ [4H40-bA]

interaction score (4H348-bA): 0.473 | interaction score (4H40-bA): -0.298 | interaction score (4H477-bA): -1.23 | interaction score (4H492-bA): -0.0783 | interaction score (4H741-bA): -0.761
Binder: DEIAQLEQKIAELKQENAELKWENAQLKQ [4H348-bA]

interaction score (4H4038-AA): -0.654 | interaction score (4H43-AA): 0.922 | interaction score (4H451-AA): -1.08 | interaction score (4H510-AA): -1.16 | interaction score (4H_APH): -2.34 | interaction score (4H_BCR): -1.53 | interaction score (4H_GCN4): -1.46 | interaction score (GCN2_T): -1.9 | interaction score (O11-AA): -1.13 | interaction score (O13-AA): -2.19 | interaction score (O14-AA): 1.56
Binder: DKNAALKAKNAALKAEIAALEAKIAALKG [4H4038-AA]

interaction score (4H3855-bH): -1.88 | interaction score (4H4001-bH): 1.02 | interaction score (4H454-bH): 0.744 | interaction score (4H568-bH): -2.56 | interaction score (4H607-bH): -1.71 | interaction score (4H687-bH): -0.688 | interaction score (4H717-bH): -0.607 | interaction score (4H72-bH): -1.07 | interaction score (4H797-bH): -0.875 | interaction score (4H883-bH): 0.413 | interaction score (4H908-bH): -1.26 | interaction score (4H918-bH): -0.471 | interaction score (4H953-bH): -0.861 | interaction score (4H967-bH): -0.847 | interaction score (O8-bA): -2.06
Binder: DKNQELKKKIEELEREIWELKKKNQELER [4H3855-bH]

interaction score (4H3664-AA): 0.563 | interaction score (4H369-AA): -1.44 | interaction score (4H3922-AA): -1.57 | interaction score (4H4033-AA): -1.55 | interaction score (4H481-AA): -1.04 | interaction score (4H55-AA): -1.04 | interaction score (4H662-AA): -1.5
Binder: DKNAALKAEIAALKAEIAALKAKNAALKG [4H3664-AA]

interaction score (4H2931-AA): -1.66 | interaction score (4H3001-AA): -1.79 | interaction score (4H3015-AA): -2.54 | interaction score (4H3073-AA): 0.803 | interaction score (4H3438-AA): -1.54 | interaction score (4H347-AA): -1.41 | interaction score (4H406-AA): -0.98 | interaction score (4H452-AA): -1.98 | interaction score (4H56-AA): 1.81 | interaction score (4H_APH): -1.87 | interaction score (4H_BCR): -1.73 | interaction score (4H_GCN4; mean of both orientations): -2.51 | interaction score (GCN2_T): -2.11
Binder: DKIAALKAKIAALKAKNAALEAENAALEG [4H2931-AA]

interaction score (4H3381-bN): 0.302 | interaction score (4H349-bN): -0.946 | interaction score (4H56-bN): -1.09 | interaction score (4H730-bN): -1.25 | interaction score (4H796-bN): -1.3 | interaction score (4H932-bN): -0.998 | interaction score (4H949-bN): -1.1
Binder: DKNQQLEQKIQELEQKNQELEWKIQELEQ [4H3381-bN]

interaction score (4H40-bN): 0.212 | interaction score (4H477-bN): 0.0764 | interaction score (4H492-bN): -0.862 | interaction score (4H741-bN): -0.956
Binder: DEIQQLEQEIQELEQKIQELEWKNQELKQ [4H40-bN]
